{"source": "paper PMC5658623", "target": "PhaPTD from Halomonas bluephagenesis TD01 (Halomonas bluephagenesis TD01)", "assay": "SEC-MALS; Superdex 200 gel filtration connected to an eighteen-angle static light scattering system (DAWN HELEOS II); HBS buffer (1.5 mM Na2HPO4, 50 mM HEPS, 150 mM NaCl); sample at 1 mg/mL; 0.5 mL/min; 16°C"}
{"substance": "PhaPTD from Halomonas bluephagenesis TD01 (natural protein)", "values": [{"measurement": "stoichiometry N", "result": 3}]}
